Reference: patent US20110111454

What was measured:
IFNα2b[Tn] = IFNα2b[Tn] (UniProt P01563)
[Tn]-MalE-hGH = [Tn]-MalE-hGH (UniProt P01241)
[Tn]-MalE-hGH, sequence (P01241 27-217): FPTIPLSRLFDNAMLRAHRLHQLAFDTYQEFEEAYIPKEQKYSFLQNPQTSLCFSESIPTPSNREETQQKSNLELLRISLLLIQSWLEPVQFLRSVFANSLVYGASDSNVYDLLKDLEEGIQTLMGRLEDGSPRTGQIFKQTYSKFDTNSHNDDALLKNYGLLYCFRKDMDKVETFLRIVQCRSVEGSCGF

IFNα2b[Tn], sequence (P01563 whole entry, looked up): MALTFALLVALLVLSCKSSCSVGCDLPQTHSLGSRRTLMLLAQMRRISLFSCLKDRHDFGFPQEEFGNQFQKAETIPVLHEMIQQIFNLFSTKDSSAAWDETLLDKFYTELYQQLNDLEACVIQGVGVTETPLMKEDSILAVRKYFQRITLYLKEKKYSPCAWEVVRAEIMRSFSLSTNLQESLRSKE

CgtBOH4384 (Δ30, C-terminal MalE)
CE-MS mass shift of the peptide (IFNα2b[Tn]-FCHASE): the molecular weight of IFNα2b[T-Ag]-FCHASE was 162 Dalton higher than that of IFNα2b[Tn]-FCHASE
Specific Activity (mU/mg) on 1 mM IFNα2b[Tn]-FCHASE (IFNα2b[Tn]-FCHASE): 272 mU/mg
percent of IFNα2b[Tn]-FCHASE converted into IFNα2b[T-Ag]-FCHASE after 30 minutes (capillary electrophoresis) (IFNα2b[Tn]-FCHASE): 91.9% of the material had been converted into IFNα2b[T-Ag]-FCHASE
MALDI mass of the galactosylated protein (IFNα2b[Tn]): The presence of the species at m/z 19665 is the proof that the IFNα2b[Tn] protein can be galactosylated by CJL-136

CgtBOH4384 (Δ30, N-terminal MalE)
Specific Activity (mU/mg) on 1 mM IFNα2b[Tn]-FCHASE (IFNα2b[Tn]-FCHASE): 14 mU/mg

CgtB11168 (Δ30, C-terminal MalE)
PNA blot after the galactosylation reaction ([Tn]-MalE-hGH): Increased staining in Lane D after PNA blotting
